In patent publication US20170313764A1 (ACADEMISCH MEDISCH CENTRUM, published 2017):

Legend:
[1] = target: E1E2 of HCV isolate H77 (genotype 1a), wild type (Hepatitis C virus genotype 1a, strain …, UniProt P27958 192-383; P27958 384-746); assay: cell-based or functional assay
[2] = target: E1E2 of HCV isolate AMS.3a.21071213 (genotype 3a) (Hepatitis C virus genotype 3a); assay: cell-based or functional assay
[3] = target: E1E2 of HCV isolate UKN4.11.1 (genotype 4) (Hepatitis C virus genotype 4); assay: cell-based or functional assay
[4] = target: E1E2 of HCV isolate AMS.4d.20875969 (genotype 4d) (Hepatitis C virus genotype 4d); assay: cell-based or functional assay
[5] = target: E1E2 of HCV isolate H77 with single mutation N415A (Hepatitis C virus genotype 1a, strain …, UniProt P27958 192-383; P27958 384-746); assay: ELISA, GNA-captured E1E2 lysate; EC50 wild type / EC50 mutant
[6] = target: E1E2 of HCV isolate H77 with single mutation S424A (Hepatitis C virus genotype 1a, strain …, UniProt P27958 192-383; P27958 384-746); assay: as above
[7] = target: E1E2 of HCV isolate H77 with single mutation G436A (Hepatitis C virus genotype 1a, strain …, UniProt P27958 192-383; P27958 384-746); assay: as above
[8] = target: E1E2 of HCV isolate H77 with single mutation Y443A (Hepatitis C virus genotype 1a, strain …, UniProt P27958 192-383; P27958 384-746); assay: as above
[9] = target: E1E2 of HCV isolate H77 with single mutation Y527A (Hepatitis C virus genotype 1a, strain …, UniProt P27958 192-383; P27958 384-746); assay: as above
[10] = target: E1E2 of HCV isolate H77 with single mutation W529A (Hepatitis C virus genotype 1a, strain …, UniProt P27958 192-383; P27958 384-746); assay: as above
[11] = target: E1E2 of HCV isolate H77 with single mutation G530A (Hepatitis C virus genotype 1a, strain …, UniProt P27958 192-383; P27958 384-746); assay: as above
[12] = target: E1E2 of HCV isolate H77 with single mutation D535A (Hepatitis C virus genotype 1a, strain …, UniProt P27958 192-383; P27958 384-746); assay: as above
[13] = target: E1E2 of HCV isolate H77 with single mutation W616A (Hepatitis C virus genotype 1a, strain …, UniProt P27958 192-383; P27958 384-746); assay: as above
[14] = target: E1E2 of HCV isolate H77 with single mutation R657A (Hepatitis C virus genotype 1a, strain …, UniProt P27958 192-383; P27958 384-746); assay: as above
[15] = target: E1E2 of HCV isolate H77 with single mutation D698A (Hepatitis C virus genotype 1a, strain …, UniProt P27958 192-383; P27958 384-746); assay: as above
[16] = target: E1E2 of HCV isolate H77 with single mutation L413A (Hepatitis C virus genotype 1a, strain …, UniProt P27958 192-383; P27958 384-746); assay: as above
[17] = target: E1E2 of HCV isolate H77 with single mutation G418A (Hepatitis C virus genotype 1a, strain …, UniProt P27958 192-383; P27958 384-746); assay: as above
[18] = target: E1E2 of HCV isolate H77 with single mutation W420A (Hepatitis C virus genotype 1a, strain …, UniProt P27958 192-383; P27958 384-746); assay: as above
[19] = target: T1, soluble E2-his6-sortase tag from HCV isolate H77 (genotype 1a) (Hepatitis C virus genotype 1a, strain …, UniProt P27958 384-717); assay: SPR (IBIS MX96), antibody spotted on chip, soluble E2-his as analyte
T1 construct: also called E2-his6-ST; E2 genotype 1a

[20] = target: T2, soluble E2-his6-sortase tag from HCV isolate AMS.2b.20876551.kloon21 (genotype 2b) (Hepatitis C virus genotype 2b); assay: as above
T2 chain: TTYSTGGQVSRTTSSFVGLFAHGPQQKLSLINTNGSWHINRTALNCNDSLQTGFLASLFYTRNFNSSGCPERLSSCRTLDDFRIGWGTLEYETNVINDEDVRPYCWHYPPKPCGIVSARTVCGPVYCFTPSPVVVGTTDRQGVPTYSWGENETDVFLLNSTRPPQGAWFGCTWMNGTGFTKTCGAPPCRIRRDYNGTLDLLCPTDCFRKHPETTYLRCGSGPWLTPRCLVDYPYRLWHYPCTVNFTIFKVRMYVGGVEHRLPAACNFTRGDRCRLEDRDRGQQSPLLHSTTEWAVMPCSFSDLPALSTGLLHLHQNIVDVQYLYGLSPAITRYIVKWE

| Binder | IC50, HCVpp neutralization [1] | IC50, HCVpp neutralization [2] | IC50, HCVpp neutralization [3] | IC50, HCVpp neutralization [4] | relative binding, mutant vs wild type [5] | relative binding, mutant vs wild type [6] | relative binding, mutant vs wild type [7] | relative binding, mutant vs wild type [8] | relative binding, mutant vs wild type [9] | relative binding, mutant vs wild type [10] | relative binding, mutant vs wild type [11] | relative binding, mutant vs wild type [12] | relative binding, mutant vs wild type [13] | relative binding, mutant vs wild type [14] | relative binding, mutant vs wild type [15] | relative binding, mutant vs wild type [16] | relative binding, mutant vs wild type [17] | relative binding, mutant vs wild type [18] | Kd [19] | koff [19] | other results |
| --- | --- | --- | --- | --- | --- | --- | --- | --- | --- | --- | --- | --- | --- | --- | --- | --- | --- | --- | --- | --- | --- |
| AT15-012 (antibody, V domains shown, also called AT15-12) VH: QVQLVQSGAEVKKPGSSVKVSCKASGGNFNIFPITWVRQAPGQGLEWMGEIIPMLGTPEYAQKFQGRVTITADKSTGTAFMELSSLRSEDTAVYYCARTETTLPGTLFFVYYFHFWGQGTPVTVSS VL: EIVMTQSPVTLSVSPGERAILSCRASQSVSSSLAWYQQKPGQAPRLLIYGASTRATGVPARFSGSGSGTEFTLTISSVQSEDYAIYFCQQYNDRPPWTFGQGTKVEIK | 0.26 µg/mL | 0.9 µg/mL | 1.66 µg/mL | 1.16 µg/mL |  |  |  |  |  |  |  |  |  |  |  |  |  |  |  |  |  |
| AT12-010 (antibody, V domains shown) VH: QLQLVQSGAEVKKPGSSVKVSCKASGGTFTSYAINWVRQVPGQGLEWMGEISPVFGTTHYAQKFQGRLKITADESADTAYMELSSLRSDDTAVYYCGRDRAPRLCSGGRCHSPPDHWGQGTLVTVSS VL: DIQMTQSPSSVSASVGDRVTITCRASQGFGNWLAWYQQKPGRAPKLLIFGASTLQNGVPSRFSGSASGTDFTLTITSLQPEDFATYYCLQTNTFPYTFGQGTKVEIKR |  |  |  |  | 117% | 16% | < 10% | < 10% | 19% | < 10% | < 10% | 5% | < 10% | 99% | 86% | 217% | 203% | < 10% | 39.3 nM | 0.00142 s⁻¹ | Kd [20]: 22.8 nM; koff [20]: 0.00098 s⁻¹ |
| AT12-007 (antibody, V domains shown) VH: QVQLEQSGAEVKKPGASVKVSCKVSGYTLTELSMHWVRQAPGKGLEWMGSFDPADGERLYAQKFQGRVIMSEDTSTDTAYMELSSLRSEDAAVYYCATAPRMTMFGVIMALDSWGQGTLVTVSS VL: DIQMTQSPSTLSASLGDRVTITCRASQNINKYLAWYQQKPGKAPKLLIYKASNLQSGVPSRFSGSGSGTDFILTISSLQPDDFATYYCQQYTTYSAWTFGQGTNVDIKR |  |  |  |  | 115% | 34% | 35% | < 10% | 24% | < 10% | < 10% | 15% | < 10% | 116% | 103% | 187% | 130% | 87% | 44 nM | 0.00184 s⁻¹ | Kd [20]: 3.8 nM; koff [20]: 0.00019 s⁻¹ |
| AT15-009 (antibody, V domains shown) VH: QVLLVQSGAEVKKPGSSVKVSCKASGGTFSTYAISWLRQAPGQGPEWMGGIVPMFGITNYAQHFQGRITITADKSTSTAYMELSSLGSEDTAVYFCARDLRSGGTFFSRGFDLWGPGTKVTVSS VL: EIVLTQSPGTLSLSPGERATLSCRASQSVSSSFLTWYQQKPGQAPRLLIFDASTRATGVPDRFSGSGSGTDFTLTISRLEPEDFGVYYCQQFDSSPTFGGGTKVEIK | 0.14 µg/mL | 0.71 µg/mL | 1.33 µg/mL | 2.26 µg/mL |  |  |  |  |  |  |  |  |  |  |  |  |  |  |  |  |  |
